Test results as given in paper PMC12463876, “AI-assisted design of ligands for lipocalin-2” (Frontiers in Immunology, 2025).

Target: T1, Recombinant human lipocalin-2 (LCN2) (human, UniProt P80188 21-198)
T1 construct: Lipocalin-2 (LCN2), human, recombinant; neither is said to be the construct used; also called neutrophil gelatinase-associated lipocalin; siderocalin; source: produced and purified by GenScript
Test: SPR; MinP-2 immobilised by amine coupling on a CM5 chip (Biacore 8K); LCN2 injected at 7.8, 15.6, 31.2, 62.5 and 125 nM, 30 uL/min, contact 120 s, dissociation 600 s; 25 °C; 1:1 model
Conditions: both partners purified

T1 sequence (P80188 21-198): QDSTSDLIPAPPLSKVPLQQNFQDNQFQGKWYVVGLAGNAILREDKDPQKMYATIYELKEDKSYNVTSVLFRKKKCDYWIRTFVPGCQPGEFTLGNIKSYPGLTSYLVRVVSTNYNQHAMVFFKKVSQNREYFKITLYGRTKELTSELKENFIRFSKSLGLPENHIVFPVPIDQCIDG

Kd: 4.2 nM
B1: MinP-2 (designed binder)
chain: MSKATVYDVSTGKTYEVSLEDAKKLASYAVYEGGYPLRISVAPEDTKAILDAIKNTSKEKAEEGKKLLEELN
notes: de novo miniprotein (RFdiffusion, ProteinMPNN) designed against LCN2; Cloned into pET30b with a Twin-Strep tag; also called MiniP-2; source: E. coli BL21 (DE3) pLysS, purified (Strep-Tactin XT magnetic beads, dialysis)
